Laboratory results reported in IntAct's records for PubMed 34400613.

B1: Ras GTPase-activating protein-binding protein 2 (Homo sapiens), Q9UN86 (parent)
chain: MVMEKPSPLLVGREFVRQYYTLLNKAPEYLHRFYGRNSSYVHGGVDASGKPQEAVYGQNDIHHKVLSLNFSECHTKIRHVDAHATLSDGVVVQVMGLLSNSGQPERKFMQTFVLAPEGSVPNKFYVHNDMFRYEDEVFGDSEPELDEESEDEVEEEQEERQPSPEPVQENANSGYYEAHPVTNGIEEPLEESSHEPEPEPESETKTEELKPQVEEKNLEELEEKSTTPPPAEPVSLPQEPPKAFSWASVTSKNLPPSGTVSSSGIPPHVKAPVSQPRVEAKPEVQSQPPRVREQRPRERPGFPPRGPRPGRGDMEQNDSDNRRIIRYPDSHQLFVGNLPHDIDENELKEFFMSFGNVVELRINTKGVGGKLPNFGFVVFDDSEPVQRILIAKPIMFRGEVRLNVEEKKTRAARERETRGGGDDRRDIRRNDRGPGGPRGIVGGGMMRDRDGRGPPPRGGMAQKLGSGRGTGQMEGRFTGQRR

Variants of: B1
Settings: with ncap_sars2 N

Row | Variant | effect of a mutation on the interaction
1 | MVMEKPSPLLVGREAVRQYYTLLNKAPEYLHRAYGRNSSYVHGGVDASGKPQEAVYGQNDIHHKVLSLNFSECHTKIRHVDAHATLSDGVVVQVMGLLSNSGQPERKFMQTFVLAPEGSVPNKAYVHNDMFRYEDEVFGDSEPELDEESEDEVEEEQEERQPSPEPVQENANSGYYEAHPVTNGIEEPLEESSHEPEPEPESETKTEELKPQVEEKNLEELEEKSTTPPPAEPVSLPQEPPKAFSWASVTSKNLPPSGTVSSSGIPPHVKAPVSQPRVEAKPEVQSQPPRVREQRPRERPGFPPRGPRPGRGDMEQNDSDNRRIIRYPDSHQLFVGNLPHDIDENELKEFFMSFGNVVELRINTKGVGGKLPNFGFVVFDDSEPVQRILIAKPIMFRGEVRLNVEEKKTRAARERETRGGGDDRRDIRRNDRGPGGPRGIVGGGMMRDRDGRGPPPRGGMAQKLGSGRGTGQMEGRFTGQRR [F15A;F33A;F124A] | disrupting interaction strength
2 | MVMEKPSPLLVGREAVRQYYTLLNKAPEYLHRAYGRNSSYVHGGVDASGKPQEAVYGQNDIHHKVLSLNFSECHTKIRHVDAHATLSDGVVVQVMGLLSNSGQPERKFMQTFVLAPEGSVPNKFYVHNDMFRYEDEVFGDSEPELDEESEDEVEEEQEERQPSPEPVQENANSGYYEAHPVTNGIEEPLEESSHEPEPEPESETKTEELKPQVEEKNLEELEEKSTTPPPAEPVSLPQEPPKAFSWASVTSKNLPPSGTVSSSGIPPHVKAPVSQPRVEAKPEVQSQPPRVREQRPRERPGFPPRGPRPGRGDMEQNDSDNRRIIRYPDSHQLFVGNLPHDIDENELKEFFMSFGNVVELRINTKGVGGKLPNFGFVVFDDSEPVQRILIAKPIMFRGEVRLNVEEKKTRAARERETRGGGDDRRDIRRNDRGPGGPRGIVGGGMMRDRDGRGPPPRGGMAQKLGSGRGTGQMEGRFTGQRR [F15A;F33A] | decreasing interaction strength
3 | MVMEKPSPLLVGREAVRQYYTLLNKAPEYLHRFYGRNSSYVHGGVDASGKPQEAVYGQNDIHHKVLSLNFSECHTKIRHVDAHATLSDGVVVQVMGLLSNSGQPERKFMQTFVLAPEGSVPNKFYVHNDMFRYEDEVFGDSEPELDEESEDEVEEEQEERQPSPEPVQENANSGYYEAHPVTNGIEEPLEESSHEPEPEPESETKTEELKPQVEEKNLEELEEKSTTPPPAEPVSLPQEPPKAFSWASVTSKNLPPSGTVSSSGIPPHVKAPVSQPRVEAKPEVQSQPPRVREQRPRERPGFPPRGPRPGRGDMEQNDSDNRRIIRYPDSHQLFVGNLPHDIDENELKEFFMSFGNVVELRINTKGVGGKLPNFGFVVFDDSEPVQRILIAKPIMFRGEVRLNVEEKKTRAARERETRGGGDDRRDIRRNDRGPGGPRGIVGGGMMRDRDGRGPPPRGGMAQKLGSGRGTGQMEGRFTGQRR [F15A] | decreasing interaction strength
